{"source": "paper PMC3308694", "about": "(The Journal of Cell Biology, 2012)", "biological_target": "the molecule itself", "experiment": "SEC", "data": [{"protein": "CC^95–303 with the E191A + K192A mutation (domain or fragment, S. cerevisiae, UniProt Q00402 95-303, looked up) KDMNFTLELSENLLVECRKLQSSNEAKNEQIKSLKQIKESLSDKIEELTNQKKSFMKELDSTKDLNWDLESKLTNLSMECRQLKELKKKTEKSWNDAAESLKLLKTDLEILTLTKNGMENDLSSQKLHYDKEISELKERILDLNNENDRLLISVSDLTSEINSLQSNRTERIKIQKQLDDAKASISSLKRKVQKKYYQKQHTSDTTVTS", "values": [{"measurement": "binding result", "value": "binds"}]}]}
